{"source": "patent US20030073236A1", "about": "“p193 proteins and nucleic acids, and uses thereof” (priority 1999, published 2003)", "target": "p193myc (p193 protein harboring a C-terminal myc epitope tag, from CMV-p193myc) (mouse) (UniProt Q8VE73)", "test": "cell-based or functional assay"}
{"substance": "SV40 Large T Antigen (T-Ag) (from UniProt P03070 1-708)", "values": [{"measurement": "co-localization to the cytoplasm in co-transfected NIH-3T3 cells (immune cytologic analyses)", "value": 63, "unit": "%"}]}
